Measured values: paper PMC12822431, “A Pan‐TE Map Reveals the Important Role of Transposable Elements in Gene Expression and Phenotypic Diversity in 2,311 Rapeseed Accessions”

Biological target: T1, BnaA01G0374400ZS (MYB TF, ortholog of AT3G11280) (Brassica napus (ZS11), UniProt A0A078HEX6 1-259)
T1 sequence: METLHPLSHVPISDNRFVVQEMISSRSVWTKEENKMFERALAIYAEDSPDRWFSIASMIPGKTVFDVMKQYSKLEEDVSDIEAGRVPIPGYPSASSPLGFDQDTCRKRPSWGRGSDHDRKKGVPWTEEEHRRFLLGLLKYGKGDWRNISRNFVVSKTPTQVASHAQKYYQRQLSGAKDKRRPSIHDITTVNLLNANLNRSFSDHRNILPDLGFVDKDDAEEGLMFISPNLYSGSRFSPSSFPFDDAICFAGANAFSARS
Assay: EMSA; Beyotime GS009 EMSA kit, room temperature, 20 min, 5% native polyacrylamide gel, chemiluminescent detection; buffer, salt and pH not stated
Conditions: protein: recombinant; tags: His; label: biotin; blunt

B1: M2 (M1 with all C nucleotides mutated) (dsDNA)
DNA 1: TTTTTTTATTTATATTAAATTTATT
DNA 2: AATAAATTTAATATAAATAAAAAAA
B1: no binding.
